B1: Hairpin Ribozyme (parent)
chain: GUCCUCUUUCACGUGCGCGUGAAAGAGAGAAGUGAACCAGAGAAACACACGUUGUGGUAUAUUACCUGGUA

The data set covers variants of B1. Nature of the data set: self-cleavage, relative activity (ratio to wild type); higher = more cleavage; co-transcriptional.
With GUCCUCUUUCACGUGCGCGUGAAAGGGAGAAGCGAACCAGAGAAACACACGUUGUGGUAUAUUACCUGGUA [A26G U33C], the self-cleavage was 0.0771.

For the variant GUCCUAUUUCACGUGGGCGUGAAAGAGAGAAGUGAACCAGAGAAACACACGUUGUGGUAUAUUACCUGGUA [C6A C16G], the self-cleavage was found to be 0.351.

In the case of GUCCUCUUUCACGUGCGCAUGAAAGAGAGAAGUGAACCAGAGAAACACACGUUGUGGUAUAGUACCUGGUA [G19A U62G], the self-cleavage was 0.103.

GUGCUCUUUCAUGUGCGCGUGAAAGAGAGAAGUGAACCAGAGAAACACACGUUGUGGUAUAUUACCUGGUA [C3G C12U]: the self-cleavage is 0.26.

Regarding GUCCUCUUUCGCGUGCGCGUGCAAGAGAGAAGUGAACCAGAGAAACACACGUUGUGGUAUAUUACCUGGUA [A11G A22C], the self-cleavage was 0.779.

Turning to GUCCUAUUUCACGCGCGCGUGAAAGAGAGAAGUGAACCAGAGAAACACACGUUGUGGUAUAUUACCUGGUA [C6A U14C], the self-cleavage turned out to be 0.579.

With GUCCUCUUUCACGCGCGCGUGAAAGAGAGAAGUGCACCAGAGAAACACACGUUGUGGUAUAUUACCUGGUA [U14C A35C], the self-cleavage is 0.687.

For the variant GACCUCUUUCACGUGCGCGUGAAAGAGAGAAGUGAACCAGAGAAACACACGUUGUGGUAUAUUACCUAGUA [U2A G68A], the self-cleavage was 0.0992.

For GUCCUCUUUCACGUGCGCGUGAAAGAGAGAAGUGAACCAGAGAAACGCACGUUGUGGUCUAUUACCUGGUA [A47G A59C], the self-cleavage turned out to be 0.134.

For GUCCUUUUUCACGUGCGCGUGAAAGAGAGAAGUGAACCAGAGAAACACACGUUGUGGUAUAUUACCGGGUA [C6U U67G], the self-cleavage came to 0.271.

On to GUCCUCUUUCACGUGCGCGUGAAAGAGAGAAGUGAACCAGAGAAACACUCGUUGUGGCAUAUUACCUGGUA [A49U U58C], for which the self-cleavage worked out at 0.28.

Take GUCCUCUUUCACGUGCGCGAGAAAGAGAGAAGUGGACCAGAGAAACACACGUUGUGGUAUAUUACCUGGUA [U20A A35G]: the self-cleavage turned out to be 0.815.

For GUCCUCUUUCACGUGCGCGUGAAAGAGAGAAGGGAACCAGAGAAACGCACGUUGUGGUAUAUUACCUGGUA [U33G A47G], the self-cleavage amounted to 0.0744.

As to GUCCUCUUUCACGUGCUCGUGAAAGAGAGAUGUGAACCAGAGAAACACACGUUGUGGUAUAUUACCUGGUA [G17U A31U], the self-cleavage is 0.104.

For the variant GUCCUCUUUCACGUGCGCGUGAAAGAGAGAAGUGAACCAGAGAAACGCACGUUGUCGUAUAUUACCUGGUA [A47G G56C], the self-cleavage is 0.132.

Consider GUCCUCUUUCACGUGCGCGUGAAAGAGAGAAGUGAACCAGAGAAACACACGUUGUCGUAUAUGACCUGGUA [G56C U63G], for which the self-cleavage was 0.175.

Consider GUCCUCUUUAACGUGCGCGUGAAAGAGAGAUGUGAACCAGAGAAACACACGUUGUGGUAUAUUACCUGGUA [C10A A31U], for which the self-cleavage was found to be 0.112.

As for GUCCUCUUUCACGUGCGCGUGAAAGAGAGAAGUGAACCAGAGAAACACACGGUGUGGUAUAGUACCUGGUA [U52G U62G], the self-cleavage worked out at 0.0994.

Turning to GUCCCCUUUAACGUGCGCGUGAAAGAGAGAAGUGAACCAGAGAAACACACGUUGUGGUAUAUUACCUGGUA [U5C C10A], the self-cleavage was determined as 0.427.

Regarding GUCCUCUUUCACGUGCGCGUGAAAGAGAGAAGUGUACCAGAGAAACACACGAUGUGGUAUAUUACCUGGUA [A35U U52A], the self-cleavage was 0.715.

On to GUCCUCUUUCACGUGCGCGUGAAAGAGAGAAGUGGACCAGAGAAACUCACGUUGUGGUAUAUUACCUGGUA [A35G A47U], for which the self-cleavage amounted to 0.178.

For GUCCUCUUUCACGUGCGCGUGAAAGAGAGAAGUGAGCCAGAGAAACACACGUAGUGGUAUAUUACCUGGUA [A36G U53A], the self-cleavage worked out at 1.2.

In the case of GUCCUCUUUCACGUGCGCGUGAAAGAGAGAAGUGAACCAGAGAAACACACGUUGUUGUAUAUUACCUGGGA [G56U U70G], the self-cleavage was 0.0481.

As for GUCCUCUUUCACGUGCGCGUGAAAGAGAGAAGUGAACCAGAGAAACUCAGGUUGUGGUAUAUUACCUGGUA [A47U C50G], the self-cleavage was 0.28.

In the case of GUCCUCUUUCACGUGCGCGUGAAAGAAGGAAGUGAACCAGAGAAACACACGUUGUGGUAUAUUACCUGGUA [G27A A28G], the self-cleavage was determined as 0.36.

Turning to GUCCUCUUUCACGUGCGCAUGAAAGAGAGAAGUGAACCAGAGAAACACACGUUGUGAUAUAUUACCUGGUA [G19A G57A], the self-cleavage was 0.152.

With GUCCUCUUUCACGUGCGCGUGAACGAGAGAAGUGAACCAGAGAAACACACGUUGUGGUAUAUUACCUGGUG [A24C A71G], the self-cleavage came out at 0.99.

With GUACUCUUUCACGUGCGCGUGAAAGUGAGAAGUGAACCAGAGAAACACACGUUGUGGUAUAUUACCUGGUA [C3A A26U], the self-cleavage was found to be 0.653.

GACCUCUUUCACGUGCGCGUGAAAGAGAGAAGUGAACCAGAGAAACACACGUUGUGAUAUAUUACCUGGUA [U2A G57A]: the self-cleavage came to 0.136.

With GUCCUCUAUCACGUGCGCGUCAAAGAGAGAAGUGAACCAGAGAAACACACGUUGUGGUAUAUUACCUGGUA [U8A G21C], the self-cleavage was found to be 0.504.

On to GUACUCUUUCACGUGCGCGUGAAAGAGAGAAGUGAACCAGAGAAACACACGUCGUGGUAUAUUACCUGGUA [C3A U53C], for which the self-cleavage came to 0.664.

Consider GUCCUCUUUCACGUGCGCGUGAAAGAGAGAAGUGAACCAAAGUAACACACGUUGUGGUAUAUUACCUGGUA [G40A A43U], for which the self-cleavage was found to be 0.0963.

Consider GUCCUCUUUCACGUGCGCGUGAAAGAGAGAAGUGGACCAGAGAUACACACGUUGUGGUAUAUUACCUGGUA [A35G A44U], for which the self-cleavage came out at 0.14.

Turning to GUCCUCUUUCACGUGCGCGUGAAAGAGAGAAGUGAACCAGAGACACACACGUUGUGGUAUAUUACCUGAUA [A44C G69A], the self-cleavage came out at 0.121.

CUCCUCUUUCACGUGCGCGUGAAAGAGAGAAGUGAACCAGAGAAACACACGUUGUGGUAUAUUACCUUGUA [G1C G68U]: the self-cleavage was 0.209.

As for GUCCUCUUUCACGUGCGCGUAAAAGAGAGAAGUGAACCAGAGAAACGCACGUUGUGGUAUAUUACCUGGUA [G21A A47G], the self-cleavage is 0.2.

On to GUCCUCUUUCUCGUGCGCGUGAAAGAGAGAAGUCAACCAGAGAAACACACGUUGUGGUAUAUUACCUGGUA [A11U G34C], for which the self-cleavage amounted to 1.43.

Turning to GUCCUCUUUCACGUGCGCGUGAAAGAGAGAAGUGAACCAAAGAAACACACCUUGUGGUAUAUUACCUGGUA [G40A G51C], the self-cleavage is 0.238.

Values taken from the RNAGym collection of RNA variant scans (doi:10.7554/elife.80360).
